Publication PMC2665239 (Nucleic Acids Research, 2009)
Like-named read-outs stand apart in the source and are kept apart here.

Experiments:
[1] = molecular target: T1, His-tagged ttPOLXc domain (N-terminal domain of ttPolX, residues 1-379) (Thermus thermophilus HB8, UniProt Q5SJ64 1-379); assay: SEC
T1 sequence (looked up): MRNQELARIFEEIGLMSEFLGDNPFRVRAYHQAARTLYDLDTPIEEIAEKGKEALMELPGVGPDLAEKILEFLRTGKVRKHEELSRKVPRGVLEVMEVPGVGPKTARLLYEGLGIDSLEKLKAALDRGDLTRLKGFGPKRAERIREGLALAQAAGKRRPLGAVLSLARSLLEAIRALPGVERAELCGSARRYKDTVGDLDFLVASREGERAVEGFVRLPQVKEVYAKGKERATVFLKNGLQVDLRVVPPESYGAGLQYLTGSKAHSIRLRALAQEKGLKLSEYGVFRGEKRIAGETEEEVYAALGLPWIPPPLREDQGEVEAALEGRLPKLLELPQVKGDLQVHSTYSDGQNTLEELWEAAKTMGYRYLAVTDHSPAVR

ttPOLXc domain [2] = molecular target: T2, ttPOLXc domain (Thermus thermophilus HB8, UniProt Q5SJ64 1-379); assay: EMSA
T2 sequence: T1 sequence (looked up)

ttPolX [3] = molecular target: T3, ttPolX (Thermus thermophilus HB8, UniProt Q5SJ64 1-575); assay: EMSA
T3 sequence: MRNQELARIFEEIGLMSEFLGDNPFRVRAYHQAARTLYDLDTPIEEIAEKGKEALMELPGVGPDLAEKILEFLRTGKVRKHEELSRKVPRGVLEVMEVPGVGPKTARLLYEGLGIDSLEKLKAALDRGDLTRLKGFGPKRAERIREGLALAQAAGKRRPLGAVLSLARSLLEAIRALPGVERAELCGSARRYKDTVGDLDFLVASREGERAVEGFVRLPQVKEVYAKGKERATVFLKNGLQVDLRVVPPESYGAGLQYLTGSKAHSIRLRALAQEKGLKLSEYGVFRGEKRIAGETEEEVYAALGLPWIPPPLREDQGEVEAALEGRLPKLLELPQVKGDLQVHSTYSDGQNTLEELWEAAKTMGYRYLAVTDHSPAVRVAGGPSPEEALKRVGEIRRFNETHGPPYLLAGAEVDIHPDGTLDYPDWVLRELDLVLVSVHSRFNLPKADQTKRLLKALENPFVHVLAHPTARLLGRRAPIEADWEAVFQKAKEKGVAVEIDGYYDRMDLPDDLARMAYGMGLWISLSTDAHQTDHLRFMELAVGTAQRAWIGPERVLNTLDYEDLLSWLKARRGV

ttPHP domain = molecular target: T4, ttPHP domain (Thermus thermophilus HB8, UniProt Q5SJ64 339-575); assay: EMSA
T4 sequence: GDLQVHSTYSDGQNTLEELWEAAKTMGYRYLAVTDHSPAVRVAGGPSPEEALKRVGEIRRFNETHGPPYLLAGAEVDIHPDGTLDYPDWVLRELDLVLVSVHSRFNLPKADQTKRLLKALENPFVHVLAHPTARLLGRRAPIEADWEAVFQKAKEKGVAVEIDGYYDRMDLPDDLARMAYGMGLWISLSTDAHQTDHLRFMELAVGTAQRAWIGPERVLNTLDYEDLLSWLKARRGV

ttPolX [4] = molecular target: T3, ttPolX; assay: EMSA; remark: listed apart in the source
ttPOLXc domain [5] = molecular target: T2, ttPOLXc domain; assay: EMSA; remark: listed apart in the source
ttPolX [6] = molecular target: T3, ttPolX; assay: EMSA; remark: listed apart in the source
ttPOLXc domain [7] = molecular target: T2, ttPOLXc domain; assay: EMSA; remark: listed apart in the source
ttPOLXc domain [8] = molecular target: T2, ttPOLXc domain; assay: EMSA; remark: listed apart in the source
ttPolX [9] = molecular target: T3, ttPolX; assay: EMSA; remark: listed apart in the source

B1: His-tagged ttPHP domain (C-terminal domain of ttPolX, residues 339-575) (domain or fragment, Thermus thermophilus HB8, UniProt Q5SJ64 339-575, looked up)
chain: T4 sequence
- stoichiometry N [1]: 1 ttPOLXc:ttPHP molar ratio

B2: 40T ssDNA (ssDNA)
DNA: CACTGGCGGTCGTTCTATCGGGTGTTGCTTTAGTTGTCAT
- Kd (ttPOLXc domain [2]): 5.5 ± 1.7 µM
- Kd (ttPolX [3]): 1.2 ± 0.7 µM
- binding result (ttPHP domain): no binding

B3: 40T/40C dsDNA (dsDNA)
DNA 1: B2 DNA
DNA 2: ATGACAACTAAAGCAACACCCGATAGAACGACCGCCAGTG
- Kd (ttPolX [4]): 1.2 ± 0.7 µM
- Kd (ttPOLXc domain [5]): 9.3 ± 3.8 µM
- binding result (ttPHP domain): no binding

B4: 21F/40T/18G 1-nt gapped DNA (dsDNA)
DNA 1: B2 DNA
DNA 2: ATGACAACTAAAGCAACACCC
DNA 3: ATAGAACGACCGCCAGTG
- Kd (ttPolX [6]): 0.39 ± 0.15 µM
- Kd (ttPOLXc domain [7]): 6.5 ± 2.5 µM
- binding result (ttPHP domain): no binding

B5: 21F/40T/P18G 5'-phosphorylated 1-nt gapped DNA (dsDNA)
DNA 1: B2 DNA
DNA 2: ATGACAACTAAAGCAACACCC
DNA 3: ATAGAACGACCGCCAGTG
modifications: 5'-phosphate on 18G (P18G)
- Kd (ttPOLXc domain [8]): 4.8 ± 2.5 µM
- Kd (ttPolX [9]): 0.3 ± 0.18 µM
- binding result (ttPHP domain): no binding
